Results: IntAct's records for PubMed 17803994

B1: Neutrophil cytosol factor 4 (Homo sapiens), Q15080 (parent)
chain: MAVAQQLRAESDFEQLPDDVAISANIADIEEKRGFTSHFVFVIEVKTKGGSKYLIYRRYRQFHALQSKLEERFGPDSKSSALACTLPTLPAKVYVGVKQEIAEMRIPALNAYMKSLLSLPVWVLMDEDVRIFFYQSPYDSEQVPQALRRLRPRTRKVKSVSPQGNSVDRMAAPRAEALFDFTGNSKLELNFKAGDVIFLLSRINKDWLEGTVRGATGIFPLSFVKILKDFPEEDDPTNWLRCYYYEDTISTIKDIAVEEDLSSTPLLKDLLELTRREFQREDIALNYRDAEGDLVRLLSDEDVALMVRQARGLPSQKRLFPWKLHITQKDNYRVYNTMP
partner: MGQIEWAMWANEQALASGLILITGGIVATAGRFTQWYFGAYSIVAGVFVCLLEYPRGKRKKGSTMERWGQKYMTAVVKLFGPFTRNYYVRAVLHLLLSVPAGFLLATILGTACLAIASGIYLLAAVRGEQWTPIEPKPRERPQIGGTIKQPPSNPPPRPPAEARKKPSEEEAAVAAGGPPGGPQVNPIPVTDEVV
B2: Cytochrome b-245 light chain (Homo sapiens), P13498 (parent)
chain: B1 partner
B3: Cytochrome b-245 light chain (Homo sapiens), P13498 (parent)
chain: B1 partner
partner: B1 chain

Variants of: B1
Settings: with cy24a_human CYBA

| Variant | effect of a mutation on the interaction |
| --- | --- |
| MAVAQQLRAESDFEQLPDDVAISANIADIEEKRGFTSHFVFVIEVKTKGGSKYLIYRRYRQFHALQSKLEERFGPDSKSSALACTLPTLPAKVYVGVKQEIAEMRIPALNAYMKSLLSLPVWVLMDEDVRIFFYQSPYDSEQVPQALRRLRPRTRKVKSVSPQGNSVDRMAAPRAEALFDFTGNSKLELNFKAGDVIFLLSRINKDRLEGTVRGATGIFPLSFVKILKDFPEEDDPTNWLRCYYYEDTISTIKDIAVEEDLSSTPLLKDLLELTRREFQREDIALNYRDAEGDLVRLLSDEDVALMVRQARGLPSQKRLFPWKLHITQKDNYRVYNTMP [W207R] | decreasing interaction |

Variants of: B2
Settings: with ncf1_human NCF1, P14598
Chain of ncf1_human NCF1, P14598 (P14598 whole entry): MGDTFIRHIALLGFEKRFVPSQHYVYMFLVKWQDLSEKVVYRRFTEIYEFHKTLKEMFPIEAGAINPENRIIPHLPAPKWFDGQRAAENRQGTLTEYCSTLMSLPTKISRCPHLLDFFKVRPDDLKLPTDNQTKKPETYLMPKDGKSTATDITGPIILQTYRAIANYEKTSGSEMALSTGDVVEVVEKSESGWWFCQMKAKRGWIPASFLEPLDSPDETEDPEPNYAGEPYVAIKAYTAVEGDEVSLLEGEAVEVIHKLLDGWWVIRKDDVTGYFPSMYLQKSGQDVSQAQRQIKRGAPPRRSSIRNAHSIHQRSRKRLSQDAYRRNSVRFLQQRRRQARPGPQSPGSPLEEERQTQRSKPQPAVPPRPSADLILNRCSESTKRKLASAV

| Variant | effect of a mutation on the interaction |
| --- | --- |
| MGQIEWAMWANEQALASGLILITGGIVATAGRFTQWYFGAYSIVAGVFVCLLEYPRGKRKKGSTMERWGQKYMTAVVKLFGPFTRNYYVRAVLHLLLSVPAGFLLATILGTACLAIASGIYLLAAVRGEQWTPIEPKPRERPQIGGTIKQPPSNPQPRPPAEARKKPSEEEAAVAAGGPPGGPQVNPIPVTDEVV [P156Q] | decreasing interaction |

Variants of: B3
Settings: with ncf4_human NCF4, Q15080

| Variant | effect of a mutation on the interaction |
| --- | --- |
| MGQIEWAMWANEQALASGLILITGGIVATAGRFTQWYFGAYSIVAGVFVCLLEYPRGKRKKGSTMERWGQKYMTAVVKLFGPFTRNYYVRAVLHLLLSVPAGFLLATILGTACLAIASGIYLLAAVRGEQWTPIEPKPRERPQIGGTIKQPPSNPQPRPPAEARKKPSEEEAAVAAGGPPGGPQVNPIPVTDEVV [P156Q] | decreasing interaction |
